10 molecules from article PMC9700851, “Interaction kinetics between p115-RhoGEF and Gα13 are determined by unique molecular interactions affecting agonist sensitivity” (Communications Biology, 2022) can be followed below.

Numbering of substitutions follows the chain as printed.

Assay in all cases: FRET or BRET; single-cell FRET in intact HEK293T cells co-transfected with TPα receptor, Gβ1 and Gγ2; donor mTurquoise2 (or CFP) on the Gα subunit, acceptor YFP on the RhoGEF; F535/F480 emission ratio on superfusion with the agonist U-46619 and after its washout (AUC of decay over the 10 min washout); room temperature, buffer pH 7.3
(In general: Bioluminescence resonance energy transfer reports proximity on the nanometre scale.)

Assay [1] concerns the target Gα13-mTurq2 (mTurquoise2 between amino acids 127 and 128) (mouse) (UniProt P27601).
The target in assay [2] is Gα13(135) (mTurquoise2 between amino acids 135 and 136) (mouse) (UniProt P27601).
Another assay deals with Gα13(135)R128A (mouse) (UniProt P27601).
The target in the next assay is T1, Gα13(135)R128A (mouse, UniProt P27601 1-377, R128A).
T1 construct: Gα13, mouse; also called Gα13-R128A; source: HEK293T, transfected, in intact cells
T1 sequence (looked up): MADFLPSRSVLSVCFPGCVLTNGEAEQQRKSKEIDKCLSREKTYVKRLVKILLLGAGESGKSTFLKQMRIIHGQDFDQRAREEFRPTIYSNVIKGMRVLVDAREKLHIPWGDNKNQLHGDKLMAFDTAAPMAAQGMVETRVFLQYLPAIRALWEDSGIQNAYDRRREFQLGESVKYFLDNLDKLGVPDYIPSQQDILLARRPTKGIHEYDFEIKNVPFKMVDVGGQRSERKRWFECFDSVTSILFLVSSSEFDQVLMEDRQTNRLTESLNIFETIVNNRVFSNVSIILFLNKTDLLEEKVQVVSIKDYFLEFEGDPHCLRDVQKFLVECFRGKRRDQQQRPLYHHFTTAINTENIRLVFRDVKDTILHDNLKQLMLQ

For assay [3], the target named is T2, Gα13-mTurq2 (mTurquoise2 between amino acids 127 and 128) (mouse, UniProt P27601 1-377).
T2 construct: Gα13, mouse; co-expressed with human TPα receptor, human Gβ1 and bovine Gγ2; also called Gα13(127); mTurq2-Gα13; source: HEK293T, transfected, in intact cells; not shown: mTurquoise2, internal (after residue 127), kept
T2 sequence (looked up): T1 sequence (looked up) with A128R
Conditions: partners not purified.

Assay [4] has as its target T3, Gα13(135) (mTurquoise2 between amino acids 135 and 136) (mouse, UniProt P27601 1-377).
T3 construct: Gα13, mouse; Gibson assembly; also called wt-Gα13; source: HEK293T, transfected, in intact cells
T3 sequence (looked up): T1 sequence (looked up) with A128R
Conditions: partners not purified.

Consider “Chimera1 (p115-RhoGEF amino acids 1-232 and LARG amino acids 559-1544) (from UniProt Q61210 1-232; Q9NZN5 559-1544)”, for which the mean AUC of decay of the FRET signal after agonist washout (arbitrary unit) in assay [1] stood at 270.

In the case of “Chimera 2 (full length p115 with the RH domain of LARG, amino acids 370-558, instead of p115 amino acids 44-232) (from UniProt Q61210 1-43; Q9NZN5 370-558; Q61210 233-912)”, in assay [1], the mean AUC of decay of the FRET signal after agonist washout (arbitrary unit) came to 274.

As to “Chimera 3 (full length LARG with the RH domain of p115, amino acids 44-232, instead of LARG amino acids 370-558) (from UniProt Q9NZN5 1-369; Q61210 44-232; Q9NZN5 559-1544)”, in assay [1], the mean AUC of decay of the FRET signal after agonist washout (arbitrary unit) is 404.

As to “eYFP-p115-RhoGEF (from UniProt Q61210 1-920) (natural protein)”, the mean AUC of decay of the FRET signal after agonist washout (arbitrary unit) in assay [2] is 284; with Gα13(135)R128A (mouse), 417; in assay [1], 331.

Regarding “p115-E32G (from UniProt Q61210 1-920) (natural protein)”, the mean AUC of decay of the FRET signal after agonist washout (arbitrary unit) in assay [2] is 453; in assay [1], 468; with Gα13(135)R128A, 444.

As to “p115-R (p115-RhoGEF amino acids 1-245) (from UniProt Q61210 1-245) (domain or fragment)”, the mean AUC of decay of the FRET signal after agonist washout (arbitrary unit) in assay [1] turned out to be 343.

In the case of “p115-Rshort (p115-RhoGEF amino acids 34-235) (from UniProt Q61210 34-235) (domain or fragment)”, the mean AUC of decay of the FRET signal after agonist washout (arbitrary unit) in assay [1] was found to be 444.

B1: LARG-PR (LARG amino acids 1-558) (domain or fragment, human, UniProt Q9NZN5 1-558, looked up)
chain: MSGTQSTITDRFPLKKPIRHGSILNRESPTDKKQKVERIASHDFDPTDSSSKKTKSSSEESRSEIYGLVQRCVIIQKDDNGFGLTVSGDNPVFVQSVKEDGAAMRAGVQTGDRIIKVNGTLVTHSNHLEVVKLIKSGSYVALTVQGRPPGSPQIPLADSEVEPSVIGHMSPIMTSPHSPGASGNMERITSPVLMGEENNVVHNQKVEILRKMLQKEQERLQLLQEDYNRTPAQRLLKEIQEAKKHIPQLQEQLSKATGSAQDGAVVTPSRPLGDTLTVSEAETDPGDVLGRTDCSSGDASRPSSDNADSPKSGPKERIYLEENPEKSETIQDTDTQSLVGSPSTRIAPHIIGAEDDDFGTEHEQINGQCSCFQSIELLKSRPAHLAVFLHHVVSQFDPATLLCYLYSDLYKHTNSKETRRIFLEFHQFFLDRSAHLKVSVPDEMSADLEKRRPELIPEDLHRHYIQTMQERVHPEVQRHLEDFRQKRSMGLTLAESELTKLDAERDKDRLTLEKERTCAEQIVAKIEEVLMTAQAVEEDKSSTMQYVILMYMKHLGVK
notes: LARG, human, with the PDZ and RH domains; source: HEK293T, transfected, in intact cells
Take B1: the “mean AUC of decay of the FRET signal after agonist washout” value in assay [3] worked out at 464 arbitrary unit.

B2: eYFP-human LARG (leukemia-associated RhoGEF) (natural protein, UniProt Q9NZN5 1-1544, looked up)
chain: MSGTQSTITDRFPLKKPIRHGSILNRESPTDKKQKVERIASHDFDPTDSSSKKTKSSSEESRSEIYGLVQRCVIIQKDDNGFGLTVSGDNPVFVQSVKEDGAAMRAGVQTGDRIIKVNGTLVTHSNHLEVVKLIKSGSYVALTVQGRPPGSPQIPLADSEVEPSVIGHMSPIMTSPHSPGASGNMERITSPVLMGEENNVVHNQKVEILRKMLQKEQERLQLLQEDYNRTPAQRLLKEIQEAKKHIPQLQEQLSKATGSAQDGAVVTPSRPLGDTLTVSEAETDPGDVLGRTDCSSGDASRPSSDNADSPKSGPKERIYLEENPEKSETIQDTDTQSLVGSPSTRIAPHIIGAEDDDFGTEHEQINGQCSCFQSIELLKSRPAHLAVFLHHVVSQFDPATLLCYLYSDLYKHTNSKETRRIFLEFHQFFLDRSAHLKVSVPDEMSADLEKRRPELIPEDLHRHYIQTMQERVHPEVQRHLEDFRQKRSMGLTLAESELTKLDAERDKDRLTLEKERTCAEQIVAKIEEVLMTAQAVEEDKSSTMQYVILMYMKHLGVKVKEPRNLEHKRGRIGFLPKIKQSMKKDKEGEEKGKRRGFPSILGPPRRPSRHDNSAIGRAMELQKARHPKHLSTPSSVSPEPQDSAKLRQSGLANEGTDAGYLPANSMSSVASGASFSQEGGKENDTGSKQVGETSAPGDTLDGTPRTLNTVFDFPPPPLDQVQEEECEVERVTEHGTPKPFRKFDSVAFGESQSEDEQFENDLETDPPNWQQLVSREVLLGLKPCEIKRQEVINELFYTERAHVRTLKVLDQVFYQRVSREGILSPSELRKIFSNLEDILQLHIGLNEQMKAVRKRNETSVIDQIGEDLLTWFSGPGEEKLKHAAATFCSNQPFALEMIKSRQKKDSRFQTFVQDAESNPLCRRLQLKDIIPTQMQRLTKYPLLLDNIAKYTEWPTEREKVKKAADHCRQILNYVNQAVKEAENKQRLEDYQRRLDTSSLKLSEYPNVEELRNLDLTKRKMIHEGPLVWKVNRDKTIDLYTLLLEDILVLLQKQDDRLVLRCHSKILASTADSKHTFSPVIKLSTVLVRQVATDNKALFVISMSDNGAQIYELVAQTVSEKTVWQDLICRMAASVKEQSTKPIPLPQSTPGEGDNDEEDPSKLKEEQHGISVTGLQSPDRDLGLESTLISSKPQSHSLSTSGKSEVRDLFVAERQFAKEQHTDGTLKEVGEDYQIAIPDSHLPVSEERWALDALRNLGLLKQLLVQQLGLTEKSVQEDWQHFPRYRTASQGPQTDSVIQNSENIKAYHSGEGHMPFRTGTGDIATCYSPRTSTESFAPRDSVGLAPQDSQASNILVMDHMIMTPEMPTMEPEGGLDDSGEHFFDAREAHSDENPSEGDGAVNKEEKDVNLRISGNYLILDGYDPVQESSTDEEVASSLTLQPMTGIPAVESTHQQQHSPQNTHSDGAISPFTPEFLVQQRWGAMEYSCFEIQSPSSCADSQSQIMEYIHKIEADLEHLKKVEESYTILCQRLAGSALTDKHSDKS
notes: LARG (leukemia-associated RhoGEF), human; also called YFP-LARG; wt-LARG; source: HEK293T, transfected, in intact cells; not shown: YFP, N-terminal, kept
Regarding B2, the “mean AUC of decay of the FRET signal after agonist washout” value came to 448 arbitrary unit in assay [3], 462 arbitrary unit in assay [4] and 495 arbitrary unit in the assay with Gα13(135)R128A (partners not purified).

B3: LARG-Rshort (LARG amino acids 360-561) (domain or fragment, human, UniProt Q9NZN5 360-561, looked up)
chain: TEHEQINGQCSCFQSIELLKSRPAHLAVFLHHVVSQFDPATLLCYLYSDLYKHTNSKETRRIFLEFHQFFLDRSAHLKVSVPDEMSADLEKRRPELIPEDLHRHYIQTMQERVHPEVQRHLEDFRQKRSMGLTLAESELTKLDAERDKDRLTLEKERTCAEQIVAKIEEVLMTAQAVEEDKSSTMQYVILMYMKHLGVKVKE
notes: LARG, human, RH domain without the region N-terminal to it; source: HEK293T, transfected, in intact cells
In the case of B3, the “mean AUC of decay of the FRET signal after agonist washout” value in assay [3] was 380 arbitrary unit.
